Measurements: publication PMC10707054

Target: FLAG-PTTG1Δ159
Test: co-IP; TCAM2 cells overexpressing FLAG-PTTG1 or FLAG-PTTG1Δ159; IP with M2 αFLAG antibody overnight at 4 °C, Dynabeads; IP lysis buffer 50 mM Tris-Cl pH 7.5, 150 mM NaCl, 1% Nonidet P-40, 1 mM EDTA; Western blot for endogenous SPTBN1, densitometry

Substance “Spectrin-βII-chain (SPTBN1) (from UniProt Q01082 1-2364) (natural protein)” has a binding relative to wild-type PTTG1 (densitometry of the co-IP) of 30%.
